Positions of bridges follow the written chain, without caps; N, C: chain ends. No end group written: not given here.
T1: human holotranscobalamin (holoTC) (human, UniProt P20062 19-427, cobalamin bound (holo form, non-covalent))
T1 construct: Recombinant human holoTC in the SPR work; also called holo-TCII
T1 chain: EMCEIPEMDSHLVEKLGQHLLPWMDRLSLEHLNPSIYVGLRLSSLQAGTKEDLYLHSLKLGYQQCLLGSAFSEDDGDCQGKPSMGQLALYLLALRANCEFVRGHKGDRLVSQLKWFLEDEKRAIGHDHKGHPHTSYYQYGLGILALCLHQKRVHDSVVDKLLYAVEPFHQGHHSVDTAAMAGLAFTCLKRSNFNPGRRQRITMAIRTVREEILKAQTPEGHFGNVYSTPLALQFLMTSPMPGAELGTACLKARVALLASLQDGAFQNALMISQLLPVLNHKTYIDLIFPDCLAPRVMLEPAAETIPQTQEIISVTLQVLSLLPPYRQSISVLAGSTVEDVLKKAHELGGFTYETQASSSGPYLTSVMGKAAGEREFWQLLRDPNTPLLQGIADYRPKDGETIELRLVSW

T2: human apotranscobalamin (apoTC) (human, UniProt P20062 19-427)
T2 construct: Same chain as holoTC without cobalamin; also called apo-TCII
T2 chain: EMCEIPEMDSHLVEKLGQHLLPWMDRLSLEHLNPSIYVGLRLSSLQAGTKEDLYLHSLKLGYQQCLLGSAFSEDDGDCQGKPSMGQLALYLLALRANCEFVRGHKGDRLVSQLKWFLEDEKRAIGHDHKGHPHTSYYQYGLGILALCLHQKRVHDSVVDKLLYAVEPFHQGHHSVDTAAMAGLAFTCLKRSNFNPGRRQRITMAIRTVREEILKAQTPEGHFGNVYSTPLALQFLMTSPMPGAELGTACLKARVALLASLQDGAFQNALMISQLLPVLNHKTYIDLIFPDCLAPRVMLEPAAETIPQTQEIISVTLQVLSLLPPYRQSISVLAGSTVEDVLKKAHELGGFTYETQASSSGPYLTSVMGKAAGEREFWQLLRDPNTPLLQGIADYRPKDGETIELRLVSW

B1: monoclonal antibody TC2 (antibody, mouse IgG1, V domains shown)
VH: QVQLKQSGPGLLQPSQSLSITCTVSGFSLTYYGVHWVRQSPVKGLEWLGVIWSGGDTDYDTTFISRLSISKDNSKGQVFFKMTSLQTDDTAIYYCARGRTYGIHFDYWGQGTTLTVSS
VL: DIVMSQSPSSLAVSVGEKVTMSCKSSQSLFNSRTRKNYLAWYQQKPGQSPKVLIYWASTRESGVPDRFTGSGSGTDFTLTISSVQAEDLAIYYCKQFYDLWTFGGGTKLEIKR
notes: also called mAb TC2; ECACC 02110742

What was measured:
[1] = target: T1, human holotranscobalamin (holoTC); experiment: SPR (BIAcore), antibody immobilised; head read as 10^-4
[2] = target: T2, human apotranscobalamin (apoTC); experiment: as above
[3] = target: T1, human holotranscobalamin (holoTC); experiment: SPR (BIAcore), antibody immobilised
[4] = target: T2, human apotranscobalamin (apoTC); experiment: SPR (BIAcore), antibody immobilised
[5] = target: T1, human holotranscobalamin (holoTC); experiment: SPR (Biacore), mAb on chip, TC injected
[6] = target: T1, human holotranscobalamin (holoTC); experiment: SPR; holoTC against apoTC
[7] = target: T1, human holotranscobalamin (holoTC); experiment: SPR (Biacore); Kd values for holoTC
monoclonal antibody 3C4 [8] = target: T3, monoclonal antibody 3C4; experiment: phage ELISA, coated mAb 3C4, 10^10 phagemid per well
T3 construct: also called mAb 3C4; 3C4 (3CY)
Procedure: (§1) Microtitre plates were coated with 100 μL, 1 μg/mL mAb 3C4 or unrelated control antibody in PBS over night at 4 C. Remaining binding sites were blocked with 20 mg/mL bovine serum albumin (BSA) in PBS for 1 h. Some wells were only coated with BSA. Monoclonal packaged phagemids were added at a concentration of 10¹⁰ to 10⁸ cfu per well in PBS and incubated for 1 h. Preparations of packaged phagemids were centrifuged to remove aggregates. Wells were washed 6 times with PBS containing 0.1% Tween-20 and 3 times with PBS. For detection of bound phages 100 μL of horse-radish peroxidase (HRP) conjugated anti-[…] antibody (e.g. Pharmacia) diluted 1/5000 in PBS was added to each well and incubated for 1 h at ambient temperature. ELISA plates were washed 5 times with PBS containing 0.1% Tween-20 and 3 times with PBS. The chromogenic substrate o-Phenyldiamine in citric acid, pH 4.0 supplemented with H₂O₂ was added and the color generating reaction was stopped after 2-5 min by addition of 2 M H₂SO₄.

monoclonal antibody 3C4 [9] = target: T3, monoclonal antibody 3C4; experiment: phage ELISA, coated mAb 3C4, 10^8 phagemid per well
Procedure: as §1
Target sequence in this assay (VH, as listed by the source, chain 1 of 2): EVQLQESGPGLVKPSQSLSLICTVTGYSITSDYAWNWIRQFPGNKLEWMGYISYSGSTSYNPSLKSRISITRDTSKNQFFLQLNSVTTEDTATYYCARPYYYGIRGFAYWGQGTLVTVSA
Target sequence in this assay (VL, as listed by the source, chain 2 of 2): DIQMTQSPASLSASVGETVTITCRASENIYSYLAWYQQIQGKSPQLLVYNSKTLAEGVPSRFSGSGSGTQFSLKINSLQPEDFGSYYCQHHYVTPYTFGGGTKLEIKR

monoclonal antibody 3C4 [10] = target: T3, monoclonal antibody 3C4; experiment: SPR, inhibition of phagemid binding to 3C4 by 1 uM holoTC (competitor)
Procedure: (§2) The carboxylated surface of the a dextran coated CM5 chip (Biacore, Sweden) was activated according to protocol supplied by the manufacturer. In short 0.05M N-hydroxysuccinimide (NHS)/0.2 M N-ethyl-N′-[3-(dimethylamino)propyl]carbodiimide hydrochloride (EDC), was injected over the carboxylated chip at 10 μL/min for 7 min, then 50 μg/mL rabbit anti-mouse IgG polyclonal antibody in 10 mM acetate buffer, pH 5.0 is injected at 10 μL/min for 7 min, and finally the chip is blocked by injection of 1 M ethanolamine at 10 μL/min for 7 min. Immobilization of mouse monoclonal antibodies on the dextran coated chip was performed in the same way.
(§3) Antibodies were covalently immobilized on a dextran coated CM5 chip as described in Example 2. Phages were diluted 10-fold in HBS-EP and injected at 10 μL/min for 3 min. The amounts of phagemid bound was recorded in real time and expressed in response units (RU). To evaluate blocking by holoTC, 1 μM of holoTC was injected at 10 μL/min for 5 min prior to the injection of phagemids at 10 μL/min for 3 min. Inhibition was computed as the number of RU of phagemid bound to 3C4 with pretreatment with holoTC divided with the number of RU bound without pretreatment, times 100.
Target sequence in this assay (VH, as listed by the source, chain 1 of 2): as the sequence (VH, as listed by the source, chain 1 of 2) above
Target sequence in this assay (VL, as listed by the source, chain 2 of 2): as the sequence (VL, as listed by the source, chain 2 of 2) above

monoclonal antibody 3C4 [11] = target: T3, monoclonal antibody 3C4; experiment: SPR, phagemid bound to 3C4 after 1 uM holoTC (competitor)
Procedure: as §2, §3
Target sequence in this assay (VH, as listed by the source, chain 1 of 2): as the sequence (VH, as listed by the source, chain 1 of 2) above
Target sequence in this assay (VL, as listed by the source, chain 2 of 2): as the sequence (VL, as listed by the source, chain 2 of 2) above

monoclonal antibody 3C4 [12] = target: T3, monoclonal antibody 3C4; experiment: SPR, 3C4 immobilised, phagemid injected
Procedure: as §2, §3
Target sequence in this assay (VH, as listed by the source, chain 1 of 2): as the sequence (VH, as listed by the source, chain 1 of 2) above
Target sequence in this assay (VL, as listed by the source, chain 2 of 2): as the sequence (VL, as listed by the source, chain 2 of 2) above

monoclonal antibody 3C4 [13] = target: T3, monoclonal antibody 3C4; experiment: phage ELISA, coated mAb 3C4, 10^9 phagemid per well
Procedure: as §1
Target sequence in this assay (VH, as listed by the source, chain 1 of 2): as the sequence (VH, as listed by the source, chain 1 of 2) above
Target sequence in this assay (VL, as listed by the source, chain 2 of 2): as the sequence (VL, as listed by the source, chain 2 of 2) above

[14] = target: T1, human holotranscobalamin (holoTC); experiment: SPR (BIAcore), scFv immobilised
[15] = target: T1, human holotranscobalamin (holoTC); experiment: SPR (BIAcore), scFv immobilised; head read as 10^-4
[16] = target: T2, human apotranscobalamin (apoTC); experiment: as above
[17] = target: T1, human holotranscobalamin (holoTC); experiment: SPR, scFv injected over immobilised holoTC
Procedure: Selected scFv antibodies were evaluated by surface plasmon resonance essentially as described in Example 2. Purified antibody preparations were injected over a chip with immobilized holoTC. The holoTC chip was prepared by binding holoTC to a chip prepared as described in 2.1 or by binding biotinylated holoTC on a streptavidin coated SA chip (Biacore, Sweden).

monoclonal antibody 3-9 = target: T4, monoclonal antibody 3-9; experiment: SPR, mAb 3-9 immobilised, phagemid injected
T4 construct: Antibody from State University of New York; also called mAb 3-9
Procedure: as §2, §3

monoclonal antibody 3C4 [18] = target: T3, monoclonal antibody 3C4; experiment: SPR, mAb 3C4 immobilised, phagemid injected
Procedure: as §2, §3
Target sequence in this assay (VH, as listed by the source): as the sequence (VH, as listed by the source, chain 1 of 2) above

monoclonal antibody TC2 = target: B1; experiment: SPR, mAb immobilised, phagemid injected (Table 5; 1 RU)
Procedure: as §2, §3

| Binder | ELISA (absorbance units) (monoclonal antibody 3C4 [8]) | ELISA (absorbance units) (monoclonal antibody 3C4 [9]) | Inhibition (%) (monoclonal antibody 3C4 [10]) | Block by holoTC (RU) (monoclonal antibody 3C4 [11]) | Phage bound (RU) (monoclonal antibody 3C4 [12]) | ELISA (absorbance units) (monoclonal antibody 3C4 [13]) | phagemid bound (RU) (monoclonal antibody 3-9) | phagemid bound (RU) (monoclonal antibody 3C4 [18]) | also measured |
| --- | --- | --- | --- | --- | --- | --- | --- | --- | --- |
| B1 |  |  |  |  |  |  |  |  | koff [1]: 0.0004 s⁻¹; koff [2]: 0.0015 s⁻¹; Ka [3]: 2.5e+08 M⁻¹; kon [3]: 100000 M⁻¹ s⁻¹; Ka [4]: 7e+07 M⁻¹; kon [4]: 100000 M⁻¹ s⁻¹; Kd [5]: 1 to 5 nM; holo/apo Specificity (-fold) [6]: 1 -fold; Kd [7]: 1 to 5 nM |
| CSGLYPWDMFRCS (disulfide 1-12 (inferred); also: displayed on phage (phagemid)) [phagemid CS1-9p (phage-displayed disulfide cyclized 13 mer peptide)] | 0.769 absorbance units | 0.259 absorbance units | 87% | 1 RU | 35 RU | 0.539 absorbance units |  |  |  |
| single chain antibody fragment TC2_ScFv (scFv, A C-terminal tag may be present; also called scFv TC2) scFv: QVQLKQSGPGLLQPSQSLSITCTVSGFSLTYYGVHWVRQSPVKGLEWLGVIWSGGDTDYDTTFISRLSISKDNSKGQVFFKMTSLQTDDTAIYYCARGRTYGIHFDYWGQGTTLTVSSGGGGSGGGGSGGGGSDIVMSQSPSSLAVSVGEKVTMSCKSSQSLFNSRTRKNYLAWYQQKPGQSPKVLIYWASTRESGVPDRFTGSGSGTDFTLTISSVQAEDLAIYYCKQFYDLWTFGGGTKLEIKR |  |  |  |  |  |  |  |  | Ka [14]: 3e+06 M⁻¹; kon [14]: 4000 M⁻¹ s⁻¹; koff [15]: 0.0015 s⁻¹; koff [16]: 0.0015 s⁻¹ |
| CSGLYPWDYFMCS (disulfide 1-12 (inferred); also: displayed on phage (phagemid)) [phagemid CS1-29p (phage-displayed disulfide cyclized 13 mer peptide)] | 0.335 absorbance units | 0.156 absorbance units | 85% | 3 RU | 20 RU | 0.189 absorbance units |  |  |  |
| mutated scFv 3C4 clone 3.9G2 (scFv, A190T stands in the next printed row (r19)) scFv: EVQLQESGPGLVKPSLSLSLICTVTGYSIASDYTWNWIRQFPGNKLEWMGYISYSGSTSYNPSLKSRISITRDTSKNQFFLQLNSVTTEDTATYYCARPYYYGIRGFAYWGQGTLVTVSAGGGGSGGGGSGGGGSDIQMTQSPASLSASVGETVTITCRASENIYSYLAWYQQIQGKSPQLLVYNSKTLTEGVPSRFSGSGSGTQFSLKINSLQPEDFGSYYCQHHYVTPYTFGGGTKLEIKR |  |  |  |  |  |  |  |  | Kd [17]: 150 nM; koff [17]: 0.00059 s⁻¹; kon [17]: 3800 M⁻¹ s⁻¹ |
| CSFRYQWDMFRCS (disulfide 1-12 (inferred); also: displayed on phage (phagemid)) [phagemid CS1-11p (phage-displayed disulfide cyclized 13 mer peptide)] | 0.645 absorbance units | 0.348 absorbance units | 100% | 0 RU | 32 RU | 0.559 absorbance units | 0 RU | 32 RU |  |
| CSFFYSLCYCWCS (disulfide (positions not given here); also: four Cys, disulfide pairing not given here, also called CSI-31p) [phagemid CS1-31p (phage-displayed disulfide cyclized 13 mer peptide)] | 0.298 absorbance units | 0.152 absorbance units | 88% | 5 RU | 42 RU | 0.165 absorbance units | 0 RU | 42 RU |  |
| CSFRYLWDQDRCS (disulfide 1-12 (inferred); also: displayed on phage (phagemid)) [phagemid CS1-6p (phage-displayed disulfide cyclized 13 mer peptide)] | 1.06 absorbance units | 0.406 absorbance units | 88% | 3 RU | 24 RU | 0.664 absorbance units | 0 RU | 45 RU | binding result (monoclonal antibody TC2): no binding |
| CSLFYLWDQDRCS (disulfide 1-12 (inferred); also: displayed on phage (phagemid), coat fusion not given here) [phagemid CS1-2p (phage-displayed disulfide cyclized 13 mer peptide)] | 0.287 absorbance units | 0.245 absorbance units |  |  | 4 RU | 0.224 absorbance units |  |  |  |

Source: patent publication US20140147868A1 (published 2014)
